The text below walks through data of US20140161803A1 (IFOM Fondazione Istituo FIRC di Oncologia Molecolare, priority 2011, published 2014).

This test addresses T1, human uPAR (Homo sapiens, UniProt Q03405).
T1 construct: the mature protein (Leu^1-Gly^283) in bold; expressed in transfected cells; host or cells: HEK293 Flp-In T-REx (293)
Put plainly: Real-time cell analyzer (xCELLigence) adhesion of 293/uPAR cells to VN. The format is cell-based. The following applies: cell index one hour after addition, highest antibody concentration 300 nM. Here is the method: The electric impedance (termed cell index, CI) was recorded at regular intervals. […] The curves show the normalized cell index (NCI, Y-axis) as a function of time (X-axis). All cell indexes were normalized to the cell index measured immediately prior to antibody addition. To determine IC50 values (panel D), the NCI measured one hour after antibody addition were calculated in % of the NCI for untreated cells at the same time point (ΔNCI, Y-axis) and graphed in function of antibody concentration (X-axis).
96-well E-Plates were coated with VN (5 μg/ml) or FN (10 μg/ml) over night at 4° C. Plates were washed with PBS, added 0.1 ml serum free medium (DMEM, 0.1% bovine serum albumin, 25 mM Hepes pH 7.0) and transferred to real-time cell analyzer instrument (xCELLigence SP, Roche Corp.). […] The plate was returned to the instrument and the cell index recorded every three minutes. […] After another 1-1.5 hours of measurements the plate was removed again and wells added (20 μl) of antibody diluted to yield the indicated final concentrations. The plate was returned to the instrument and measurements conducted every 3 minutes for 2 hours and then every 15 minutes for 18 hours.

Marks after values point to notes of the source that are not given here.

T1 sequence (Q03405 23-305): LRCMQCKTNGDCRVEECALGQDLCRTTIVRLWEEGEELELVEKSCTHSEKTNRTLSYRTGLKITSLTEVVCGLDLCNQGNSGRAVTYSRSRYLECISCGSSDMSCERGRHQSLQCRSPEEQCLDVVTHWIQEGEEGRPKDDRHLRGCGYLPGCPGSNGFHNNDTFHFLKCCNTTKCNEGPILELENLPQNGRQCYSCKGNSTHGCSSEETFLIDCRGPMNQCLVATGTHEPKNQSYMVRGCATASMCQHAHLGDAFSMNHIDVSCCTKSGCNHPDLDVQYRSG

For “SMB: uPAR-binding N-terminal domain of VN, natural competitive antagonist of the uPAR/VN-interaction (DQESCKGRCTEGFNVDKKCQCDELCSYYQSCCTDYTAECKPQVT) [reference compound]”, the “% max inhibition (pro-uPA pre-treat.)” value (pro-uPA pre-treated 293/uPAR cells on VN) is listed as 100* %. Further, the “% max inhibition (veh. pre-treat.)” value (vehicle pre-treated 293/uPAR cells on VN) was 100* %.
